From patent US20230104769A1 (MABWELL SHANGHAI BIOSCIENCE, published 2023)

Molecular target: T1, recombinant human PD-1 protein (NCBI accession No.: NP_005009.2, 21aa-167aa) (human, UniProt Q15116 21-167)
T1 construct: range 21-167; also called recombinant human PD-1 extracellular domain protein; PD-1-ECD
Assay: BLI Octet QKe, antibody on the sensor, single 100 nM PD-1
Description: Determination of the binding kinetics: the affinity of the antibody was determined with Octet QKe system from Fortebio using an assay of capturing biotin-labeled antibody with streptavidin. […] Both the binding and dissociating were conducted for 300 s.
The comparison of affinity between the variant antibodies and the parent antibody was performed using Octet QKe system supplied by Fortebio.

T1 sequence (Q15116 21-167 limits assumed, form in doubt): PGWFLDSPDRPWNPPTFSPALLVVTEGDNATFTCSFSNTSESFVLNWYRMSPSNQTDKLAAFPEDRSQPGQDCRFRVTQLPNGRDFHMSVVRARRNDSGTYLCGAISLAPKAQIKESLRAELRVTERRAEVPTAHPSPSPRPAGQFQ

Row | Binder | Kd [nM]
1 | h317 variant antibody, heavy chain Y106T (antibody, V domains shown, Variant of h317; also called YI06T) VH: EVQLVESGGGLVKPGGSLRLSCAASGFTFSSYDMSWVRQAPGKGLEWVATISGGGSYTYYPDSVKGRFTISRDNAKNSLYLQMNSLRAEDTAVYYCASPDSSGVATWGQGTLVTVSS VL: DIVMTQSPLSLPVTPGEPASITCKASQDVETVVAWYLQKPGQSPRLLIYWASTRHTGVPDRFSGSGSGTDFTLKISRVEAEDVGVYYCQQYSRYPWTFGQGTKL | 294
2 | h317 variant antibody, light chain K24R (antibody, V domains shown, Variant of h317) VH: EVQLVESGGGLVKPGGSLRLSCAASGFTFSSYDMSWVRQAPGKGLEWVATISGGGSYTYYPDSVKGRFTISRDNAKNSLYLQMNSLRAEDTAVYYCASPDSSGVAYWGQGTLVTVSS VL: DIVMTQSPLSLPVTPGEPASITCRASQDVETVVAWYLQKPGQSPRLLIYWASTRHTGVPDRFSGSGSGTDFTLKISRVEAEDVGVYYCQQYSRYPWTFGQGTKL | 1.02
3 | h317 variant antibody, light chain K24R, T56S and S92N (antibody, V domains shown, Variant of h317; also called 24R(CDR1) 56S(CDR2) 92N(CDR3)) VH: EVQLVESGGGLVKPGGSLRLSCAASGFTFSSYDMSWVRQAPGKGLEWVATISGGGSYTYYPDSVKGRFTISRDNAKNSLYLQMNSLRAEDTAVYYCASPDSSGVAYWGQGTLVTVSS VL: DIVMTQSPLSLPVTPGEPASITCRASQDVETVVAWYLQKPGQSPRLLIYWASTRHSGVPDRFSGSGSGTDFTLKISRVEAEDVGVYYCQQYNRYPWTFGQGTKL | 2.91
4 | h317 variant antibody, light chain K24R, T56S and S92N with heavy chain G54S and Y59A (antibody, V domains shown, Variant of h317; also called L- 24R(CDR1) 56S(CDR2) 92N(CDR3); H- 54S(CDR2) 59A(CDR2)) VH: EVQLVESGGGLVKPGGSLRLSCAASGFTFSSYDMSWVRQAPGKGLEWVATISGSGSYTAYPDSVKGRFTISRDNAKNSLYLQMNSLRAEDTAVYYCASPDSSGVAYWGQGTLVTVSS VL: DIVMTQSPLSLPVTPGEPASITCRASQDVETVVAWYLQKPGQSPRLLIYWASTRHSGVPDRFSGSGSGTDFTLKISRVEAEDVGVYYCQQYNRYPWTFGQGTKL | 2.88
5 | h317 variant antibody, light chain E30S (antibody, V domains shown, Variant of h317) VH: EVQLVESGGGLVKPGGSLRLSCAASGFTFSSYDMSWVRQAPGKGLEWVATISGGGSYTYYPDSVKGRFTISRDNAKNSLYLQMNSLRAEDTAVYYCASPDSSGVAYWGQGTLVTVSS VL: DIVMTQSPLSLPVTPGEPASITCKASQDVSTVVAWYLQKPGQSPRLLIYWASTRHTGVPDRFSGSGSGTDFTLKISRVEAEDVGVYYCQQYSRYPWTFGQGTKL | 14.2
6 | h317 variant antibody, light chain K24R and S92N (antibody, V domains shown, Variant of h317; also called 24R(CDR1) 92N(CDR3)) VH: EVQLVESGGGLVKPGGSLRLSCAASGFTFSSYDMSWVRQAPGKGLEWVATISGGGSYTYYPDSVKGRFTISRDNAKNSLYLQMNSLRAEDTAVYYCASPDSSGVAYWGQGTLVTVSS VL: DIVMTQSPLSLPVTPGEPASITCRASQDVETVVAWYLQKPGQSPRLLIYWASTRHTGVPDRFSGSGSGTDFTLKISRVEAEDVGVYYCQQYNRYPWTFGQGTKL | 4.17
7 | h317 variant antibody, light chain K24R and T56S (antibody, V domains shown, Variant of h317; also called 24R(CDR1) 56(2)) VH: EVQLVESGGGLVKPGGSLRLSCAASGFTFSSYDMSWVRQAPGKGLEWVATISGGGSYTYYPDSVKGRFTISRDNAKNSLYLQMNSLRAEDTAVYYCASPDSSGVAYWGQGTLVTVSS VL: DIVMTQSPLSLPVTPGEPASITCRASQDVETVVAWYLQKPGQSPRLLIYWASTRHSGVPDRFSGSGSGTDFTLKISRVEAEDVGVYYCQQYSRYPWTFGQGTKL | 3.23
8 | h317 variant antibody, light chain H55Q (antibody, V domains shown, Variant of h317) VH: EVQLVESGGGLVKPGGSLRLSCAASGFTFSSYDMSWVRQAPGKGLEWVATISGGGSYTYYPDSVKGRFTISRDNAKNSLYLQMNSLRAEDTAVYYCASPDSSGVAYWGQGTLVTVSS VL: DIVMTQSPLSLPVTPGEPASITCKASQDVETVVAWYLQKPGQSPRLLIYWASTRQTGVPDRFSGSGSGTDFTLKISRVEAEDVGVYYCQQYSRYPWTFGQGTKL | 14.2
9 | h317 variant antibody, light chain H55A (antibody, V domains shown, Variant of h317) VH: EVQLVESGGGLVKPGGSLRLSCAASGFTFSSYDMSWVRQAPGKGLEWVATISGGGSYTYYPDSVKGRFTISRDNAKNSLYLQMNSLRAEDTAVYYCASPDSSGVAYWGQGTLVTVSS VL: DIVMTQSPLSLPVTPGEPASITCKASQDVETVVAWYLQKPGQSPRLLIYWASTRATGVPDRFSGSGSGTDFTLKISRVEAEDVGVYYCQQYSRYPWTFGQGTKL | 172
10 | h317 variant antibody, light chain K24R, T56S and S92N with heavy chain D33S and G54S (antibody, V domains shown, Variant of h317; also called L- 24R(CDR1) 56S(CDR2) 92N(CDR3); H- 33S(CDR1) 54S(CDR2)) VH: EVQLVESGGGLVKPGGSLRLSCAASGFTFSSYSMSWVRQAPGKGLEWVATISGSGSYTYYPDSVKGRFTISRDNAKNSLYLQMNSLRAEDTAVYYCASPDSSGVAYWGQGTLVTVSS VL: DIVMTQSPLSLPVTPGEPASITCRASQDVETVVAWYLQKPGQSPRLLIYWASTRHSGVPDRFSGSGSGTDFTLKISRVEAEDVGVYYCQQYNRYPWTFGQGTKL | 3.38
11 | h317 variant antibody, light chain K24R and Y94F (antibody, V domains shown, Variant of h317; also called 24R(CDR1) 94F(CDR3)) VH: EVQLVESGGGLVKPGGSLRLSCAASGFTFSSYDMSWVRQAPGKGLEWVATISGGGSYTYYPDSVKGRFTISRDNAKNSLYLQMNSLRAEDTAVYYCASPDSSGVAYWGQGTLVTVSS VL: DIVMTQSPLSLPVTPGEPASITCRASQDVETVVAWYLQKPGQSPRLLIYWASTRHTGVPDRFSGSGSGTDFTLKISRVEAEDVGVYYCQQYSRFPWTFGQGTKL | 5.32

Other lines, results leading:

Row | Kd [nM] | Binder
12 | 12.3 | h317 variant antibody, light chain W50A (antibody, V domains shown, Variant of h317) VH: EVQLVESGGGLVKPGGSLRLSCAASGFTFSSYDMSWVRQAPGKGLEWVATISGGGSYTYYPDSVKGRFTISRDNAKNSLYLQMNSLRAEDTAVYYCASPDSSGVAYWGQGTLVTVSS VL: DIVMTQSPLSLPVTPGEPASITCKASQDVETVVAWYLQKPGQSPRLLIYAASTRHTGVPDRFSGSGSGTDFTLKISRVEAEDVGVYYCQQYSRYPWTFGQGTKL
13 | 7.52 | h317 variant antibody, light chain S92D (antibody, V domains shown, Variant of h317) VH: EVQLVESGGGLVKPGGSLRLSCAASGFTFSSYDMSWVRQAPGKGLEWVATISGGGSYTYYPDSVKGRFTISRDNAKNSLYLQMNSLRAEDTAVYYCASPDSSGVAYWGQGTLVTVSS VL: DIVMTQSPLSLPVTPGEPASITCKASQDVETVVAWYLQKPGQSPRLLIYWASTRHTGVPDRFSGSGSGTDFTLKISRVEAEDVGVYYCQQYDRYPWTFGQGTKL
14 | 3.02 | h317 variant antibody, light chain T56S (antibody, V domains shown, Variant of h317) VH: EVQLVESGGGLVKPGGSLRLSCAASGFTFSSYDMSWVRQAPGKGLEWVATISGGGSYTYYPDSVKGRFTISRDNAKNSLYLQMNSLRAEDTAVYYCASPDSSGVAYWGQGTLVTVSS VL: DIVMTQSPLSLPVTPGEPASITCKASQDVETVVAWYLQKPGQSPRLLIYWASTRHSGVPDRFSGSGSGTDFTLKISRVEAEDVGVYYCQQYSRYPWTFGQGTKL
15 | 9.81 | h317 variant antibody, light chain V32Y (antibody, V domains shown, Variant of h317) VH: EVQLVESGGGLVKPGGSLRLSCAASGFTFSSYDMSWVRQAPGKGLEWVATISGGGSYTYYPDSVKGRFTISRDNAKNSLYLQMNSLRAEDTAVYYCASPDSSGVAYWGQGTLVTVSS VL: DIVMTQSPLSLPVTPGEPASITCKASQDVETYVAWYLQKPGQSPRLLIYWASTRHTGVPDRFSGSGSGTDFTLKISRVEAEDVGVYYCQQYSRYPWTFGQGTKL
16 | 61.4 | h317 variant antibody, light chain W50G (antibody, V domains shown, Variant of h317) VH: EVQLVESGGGLVKPGGSLRLSCAASGFTFSSYDMSWVRQAPGKGLEWVATISGGGSYTYYPDSVKGRFTISRDNAKNSLYLQMNSLRAEDTAVYYCASPDSSGVAYWGQGTLVTVSS VL: DIVMTQSPLSLPVTPGEPASITCKASQDVETVVAWYLQKPGQSPRLLIYGASTRHTGVPDRFSGSGSGTDFTLKISRVEAEDVGVYYCQQYSRYPWTFGQGTKL
17 | 7.94 | h317 variant antibody, light chain R93S (antibody, V domains shown, Variant of h317) VH: EVQLVESGGGLVKPGGSLRLSCAASGFTFSSYDMSWVRQAPGKGLEWVATISGGGSYTYYPDSVKGRFTISRDNAKNSLYLQMNSLRAEDTAVYYCASPDSSGVAYWGQGTLVTVSS VL: DIVMTQSPLSLPVTPGEPASITCKASQDVETVVAWYLQKPGQSPRLLIYWASTRHTGVPDRFSGSGSGTDFTLKISRVEAEDVGVYYCQQYSSYPWTFGQGTKL
18 | 15.3 | h317 variant antibody, light chain W96G (antibody, V domains shown, Variant of h317) VH: EVQLVESGGGLVKPGGSLRLSCAASGFTFSSYDMSWVRQAPGKGLEWVATISGGGSYTYYPDSVKGRFTISRDNAKNSLYLQMNSLRAEDTAVYYCASPDSSGVAYWGQGTLVTVSS VL: DIVMTQSPLSLPVTPGEPASITCKASQDVETVVAWYLQKPGQSPRLLIYWASTRHTGVPDRFSGSGSGTDFTLKISRVEAEDVGVYYCQQYSRYPGTFGQGTKL
19 | 6.21 | h317 variant antibody, light chain V32A (antibody, V domains shown, Variant of h317) VH: EVQLVESGGGLVKPGGSLRLSCAASGFTFSSYDMSWVRQAPGKGLEWVATISGGGSYTYYPDSVKGRFTISRDNAKNSLYLQMNSLRAEDTAVYYCASPDSSGVAYWGQGTLVTVSS VL: DIVMTQSPLSLPVTPGEPASITCKASQDVETAVAWYLQKPGQSPRLLIYWASTRHTGVPDRFSGSGSGTDFTLKISRVEAEDVGVYYCQQYSRYPWTFGQGTKL
20 | 3.98 | h317 variant antibody, light chain T56S and S92N (antibody, V domains shown, Variant of h317; also called 56S(CDR2) 92N(CDR3)) VH: EVQLVESGGGLVKPGGSLRLSCAASGFTFSSYDMSWVRQAPGKGLEWVATISGGGSYTYYPDSVKGRFTISRDNAKNSLYLQMNSLRAEDTAVYYCASPDSSGVAYWGQGTLVTVSS VL: DIVMTQSPLSLPVTPGEPASITCKASQDVETVVAWYLQKPGQSPRLLIYWASTRHSGVPDRFSGSGSGTDFTLKISRVEAEDVGVYYCQQYNRYPWTFGQGTKL
21 | 3.49 | h317 variant antibody, light chain S92N (antibody, V domains shown, Variant of h317) VH: EVQLVESGGGLVKPGGSLRLSCAASGFTFSSYDMSWVRQAPGKGLEWVATISGGGSYTYYPDSVKGRFTISRDNAKNSLYLQMNSLRAEDTAVYYCASPDSSGVAYWGQGTLVTVSS VL: DIVMTQSPLSLPVTPGEPASITCKASQDVETVVAWYLQKPGQSPRLLIYWASTRHTGVPDRFSGSGSGTDFTLKISRVEAEDVGVYYCQQYNRYPWTFGQGTKL
22 | 36.4 | h317 variant antibody, light chain R93N (antibody, V domains shown, Variant of h317) VH: EVQLVESGGGLVKPGGSLRLSCAASGFTFSSYDMSWVRQAPGKGLEWVATISGGGSYTYYPDSVKGRFTISRDNAKNSLYLQMNSLRAEDTAVYYCASPDSSGVAYWGQGTLVTVSS VL: DIVMTQSPLSLPVTPGEPASITCKASQDVETVVAWYLQKPGQSPRLLIYWASTRHTGVPDRFSGSGSGTDFTLKISRVEAEDVGVYYCQQYSNYPWTFGQGTKL
